Experimental data: US20240101645A1 (HENRY M JACKSON FOUNDATION FOR THE ADVANCEMENT OF MILITARY …, published 2024)

molecular target: SARS-CoV-2 S on pseudovirions (Wuhan Hu-1 / IL1/2020, last 18 amino acids removed) (SARS-CoV-2, UniProt P0DTC2 14-1273); test: cell-based or functional assay

| Binder | Mean IC50, pSV neutralization [µg/ml] | Mean IC80, pSV neutralization [µg/ml] |
| --- | --- | --- |
| COV_1082 (antibody, V domains shown) VH: EVQLVESGGGLVQPGGSLRLSCAASGFIFNIHGMNWFRQAPGKGLEWISHIGTSGESRDIHYADSVRGRFTISRDNGKHSLYLQMNSLTAEDTAVYFCARGLTNSDLWGQGTLVTVSS VL: EIVMTQTPLSSPVTLGQPASISCRSSESLVHSNGDTYLSWLHQRPGQPPRLLLYKISNRFSGVPDRFSGSGAGTDFTLTISRVEAEDVGLYYCMQATSFPRTFGQGTKVEIKR | ≥ 25 | ≥ 25 |
| COV_1198 (antibody, V domains shown) VH: EVQLVEAGGDLVQPGGSLRLSCSASGFTFTSYSIHWVRQAPGKGLEYVSTISHGGDITDFADSVKGRFTISRDNSENTVYLQMSSLRPEDTAVYYCARSNFWLDYWGQGTLVTVSS VL: KIVMTQSPATLSVSPGDSATLSCRASQSVSSNLAWYQQKPGQAPRLLISGAFTRATGIPARFSGSGSGTEFTLTISSLQSEDFAVYYCLQYNNWPLYTFGQGTKLEIKR | ≥ 25 | ≥ 25 |
| COV_2172 (SEQ ID NO:442/447) (antibody, V domains shown) VH: EVQLVESGGGVVQPGRSLRLSCAPSGFTFSTYAMHWVRQAPGKGLEWVAVISYDGSIKYYADSVKGRFTISRDNTMNTVFLQMNSLRAEDTAVYFCAKGGERWELFTSFDYWGQGTQVTVSS VL: QSALTQPRSVSGSPGQSVTISCTGTSSDVGGYNYVSWYQQHPGKAPKLMIYDVSKRPSGVPDRFSGSKSGNTASLTISGLQAEDEADYYCCSYAGSYTFVFGGGTKLTVL | 3.73 | ≥ 25 |
| COV_3000 (antibody, V domains shown) VH: EVQLVESGGGLVQPGRSLRLSCTASGFNFGDNSMSWVRQAPGKGLEWVGFISNRASGGTTEYAASVKGRFTISRDDSKSIAYLQMNSLKTEDTAMYFCTKDSYGHFPNYGFDIWGQGTMVTVSS VL: AVVMTQTPLSLSVTPGQPASISCKSSQSLIHTDGKTYHYWFLQRPGQPPQLLIYDVSNRVSGVPDRFSGSGSGTDFTLKISRVEADDVGVYYCMHSIQLPRAFGQGTKVEIT | ≥ 25 | ≥ 25 |
| COV_3037 (antibody, V domains shown) VH: EVQLVESGGGLVQPGRSLRLSCTASGFNFGDNSMSWVRQAPGKGLEWVGFISNRAYGGTTEYAASVKGRFSISRDDSKSIAYLQMNSLRTEDTAMYFCTKDSYGHFPNYGFDIWGQGTMVIVSS VL: VVVMTQTPLSLSVTPGQPASISCKSSQSLIHTDGKTYHYWFLQRPGQPPQLLIYDVSNRVSGVPDRFSGSGSGTDFTLKISRVEADDVGVYYCMHSIQLPRAFGQGTKVEIT | ≥ 25 | ≥ 25 |
| COV_2108 (antibody, V domains shown) VH: EVQLVESGGGVVQPGRSLRLSCAASGFTFSNYAFHWVRQAPGKGLEWVAVISYDGSIKYSADSVKGRFTISRDNSKNTLYLQMNSLRAEDTAVYYCARDSGDYVDYFDYWGQGTLVTVSS VL: DIQMTQSPSSLSASVGDRVTITCRASQSISSYLNWYQQKPGKAPKLLIHTTSSLQSGVPSRFSGSGSGTGFTLTISSLQPEDFATYYCQQSYSSPPLTFGGGTKVEIK | 13.5 | 15.8 |
| COV_1071 (antibody, V domains shown) VH: QVHLVQSGAEVQKPGASVKISCKASGDTFSESYVHWVRQAPGSGLEWMGIINTRDGDTNYTHQFQDRVMMTTDTSTSTVFLELYSLTSEDTAVYYCARAPDQYFDYWGQGSPVTVSA VL: DIVMTQTPLSSPVTLGQPASISCRSSESLVHSNGNTYLSWLQQRPGQPPKLLIYRVSNRFSGVPDRFSGSGAGTEFTLKISRVEAEDVGVYYCMQARHFPRTFGQGTKVEIKR | ≥ 25 | ≥ 25 |
| COV_1087 (antibody, V domains shown) VH: QVQLVQSGAEVQKPGASVKVSCKASGDTFSYHYVHWVRQAPGYGLEWMGIIDPRNADTNYTQKFQGRVTMTTDTSTNTVFLELSSLTSDDTAVYYCARAPDQYFDYWGQGSPVTVSA VL: DIVMTQTPLSSPVTLGQPASISCKSSESLLHSDGNTYLSWLQQRPGQPPRLLIYRVSNRFSGVPDRFSGSGAGTDFTLRISRVEAEDVGVYYCMQATQFPRTFGQGTKVEIKR | ≥ 25 | ≥ 25 |
| COV_1086 (antibody, V domains shown) VH: GAQLLESGGALVQPGGSLRLSCAASGFTFNNYGMGWVRQTPGKGLEWVSTINDNGGNTHYADSVKGRFTISRDNSKHTLYLQMNSLRVEDTALYYCAKDVGGPALFEYWGHGTLVTVSS VL: DIVMTQTPLSSSVTLGQPASISCRSSQSLVHSDGNTYLTWLQQRPGQPPKLLIYKISNRLSGVPDRFSGSGAGTDFTLKISRVEAEDVGVYYCMQATHFPRTFGQGTKLEIKR | ≥ 25 | ≥ 25 |
| COV_1045 (antibody, V domains shown) VH: QVHLVQSGAEVQKPGASVKISCKASGDTLSDSYVHWVRQAPGSGLEWMGIINTRDGDTNYTHQFQDRVMMTTDTSTSTVFLELFSLTSEDTAVYYCARAPDQYFDYWGQGSPVTVSA VL: DIVMTQTPLSSPVTLGQPASISCRSSESLVHSNGNTYLSWLQQRPGQPPRLLIYRVSNRFSGVPDRFSGSGAGTEFTLKISRVEAEDVGVYYCMQARHFPRTFGQGTKVEIK | ≥ 25 | ≥ 25 |
| COV_1037 (antibody, V domains shown) VH: QVQLVESGGGVVQPGRSLRLSCAASGFTFSSYGMHWVRQAPGKGLEWVAVIWYDGSNKYYADSVKGRFTISRDNSKNTLYLQMNSLRAEDTAVYYCARGGYQLLWHYYYYYGMDVWGQGTTVTVSS VL: not shown | ≥ 25 | ≥ 25 |
| COV_2066 (antibody, V domains shown) VH: QVQLQESGPGLVKPSETLSLTCSVSGFAITNGFDWGWIRQPPRLGLEWIGTVFHTGVTYSNPSLKSRLSTSVDTSKNQFSMTLNSVTAADTGIYYCVRVQSGLEARAMSFFDYWGQGMLVSVSS VL: DIVMTQSPDSLAVSLGERATINCKSSQNVLYSSNNKNSLAWYQQKPGQPPKVLIYWASTRVSGVPDRFIGSGSGTDFTLTISSLQAEDVAVYYCQQYSSSITFGPGTKVEVKR | ≥ 25 | ≥ 25 |
| COV_1076 (antibody, V domains shown) VH: QVQLVESGGGLVKPGGSLRLSCAASGFTFSEYSMSWIRQAPGKGLEWVSFIGGSGDYTNYADSVKGRFTISRDNAKNLLYLQMNTLRVEDTAVYYCARRGSANCGDDWWGQGTLVTVSS VL: DIVMTQSPDSLAVSLGERATINCKSSHGVLYRSNNKDHLAWYQQKPGHPPKLLIYWASIRESGVPDRFSGSGSGTDFTLTISGLQAEDVAVYYCQQYYGNPTFGGGTKVEIKR | ≥ 25 | ≥ 25 |
| COV_2018 (antibody, V domains shown) VH: QVQLVQSGAEVKKPGSSVKVSCKASGGTSSSYAISWVRQAPGQGLEWIGGIIPIFDTTKYAQKFQGRVTITADESTNTAYMEVSSLRSEDTAVYYCAKVADRVGASTGELDYWGQGTLVTVSS VL: EVVLTQSPATLSLSPGERGTLSCRASQSISNYLAWYQQKPGQAPRLLIYNASNRATGVPARFSGSGSGTDFTLTISSLEPEDFAVYYCQQRSNWPPWTFGQGTKVEIK | 0.31 | 1.27 |
